We go through 3 molecules from publication PMC7374468, “Characterization of highly active 2-keto-3-deoxy-L-arabinonate and 2-keto-3-deoxy-D-xylonate dehydratases in terms of the biotransformation of hemicellulose sugars to chemicals” (Applied Microbiology and Biotechnology, 2020).

One series addresses T1, PpD-KdpD (Pseudomonas putida, UniProt Q88J13).
T1 construct: gene PP_2836; C-terminal His6 tag (kept), pET vector, E. coli BL21(DE3), HisTrap purified
T1 sequence (Q88J13 1-405): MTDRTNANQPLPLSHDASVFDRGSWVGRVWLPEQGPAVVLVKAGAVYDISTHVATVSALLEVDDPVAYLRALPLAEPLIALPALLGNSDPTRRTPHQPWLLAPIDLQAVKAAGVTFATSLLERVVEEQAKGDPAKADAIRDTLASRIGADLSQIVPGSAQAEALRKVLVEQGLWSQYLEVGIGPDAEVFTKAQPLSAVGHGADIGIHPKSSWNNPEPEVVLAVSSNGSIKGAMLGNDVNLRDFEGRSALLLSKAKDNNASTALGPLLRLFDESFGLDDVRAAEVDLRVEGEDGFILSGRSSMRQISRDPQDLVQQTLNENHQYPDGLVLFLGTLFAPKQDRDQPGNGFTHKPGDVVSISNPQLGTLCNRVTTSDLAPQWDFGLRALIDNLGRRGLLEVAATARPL
Briefly: coupled assay with PpKGSADH, NADH at […] nm. The format is biochemical. As to conditions: read-out: I50.

Substrate in series [1]: O=C(O)C(=O)C[C@H](O)CO
As to the kind of experiment: purified protein, by the assay type. Set-up: coupled assay with PpKGSADH, NADH formation at 340 nm, Michaelis-Menten fit, 25 °C, pH 7.5. As to conditions: pH 7.5; 25.0 °C. As to the method: To determine dehydratase activity, a coupled-assay with PpKGSADH as auxiliary enzyme was used to link the oxidation of KGSA to α-KG using NAD^+, as was described in a previous study (Beer et al. [2017]). The measurement was performed in a 96-well F-bottom plate (Greiner Bio-One, Germany). 20 μL of a diluted enzyme was added to a 96-well plate. A total of 180 μL of reaction solution containing different concentrations of either D-KDP or L-KDP with 0.5 U/mL PpKGSADH, 2 mM NAD^+, 5 mM MgCl2, 50 mM HEPES pH 7.5 (end concentration) were added subsequently. The measurement was performed with a Multiskan spectrophotometer (Thermo Scientific, Germany) by measuring the development of NADH at 340 nm at 25 °C. Enzyme activity (kcat) was defined as the number of NADH molecules formed per molecule of enzyme per second. Measurements were performed in triplicate.

Substrate in series [2]: O=C(O)C(=O)C[C@@H](O)CO
As to the kind of experiment: purified protein. As to conditions: 2 mM NAD+ for coupling enzyme, 5 mM MgCl2, 50 mM HEPES pH 7.5, 25 °C. The format is biochemical, Herbaspirillum seropedicae.

Substrate in series [3]: O=C(O)C(=O)C[C@@H](O)CO
Briefly: purified protein. The class given is biochemical, Variovorax paradoxus. As to conditions: 2 mM NAD+ for coupling enzyme, 5 mM MgCl2, 50 mM HEPES pH 7.5, 25 °C.

In the case of `O=C(O)[C@H](O)[C@@H](O)[C@H](O)CO` [D-xylonate], at PpD-KdpD, the IC50 is 75 mM.

B1: HsL-KdpD (Herbaspirillum seropedicae SmR1) (protein)
chain: MSTPLYRGVFPVAPTIFDANGKLDLEGQKRAIDFMIDAGSNGLCILANFSEQFVLSDEERVQVQNTVLEHVAGRVPVIVTTTHYGSQICAERSRAAQDAGAAMVMVMPPYHGATFRVPEKQIYEFYKHVSDAIDIPIMIQDAPVAGTPLSAPFLARMAKEIEQVSYFKIETAGAASKLRDLIELGGDAVVGPWDGEEAITLIPDLDAGATGAMTGGGYPDGIRKIVDAYFAGDIEKAAELYMQWLPLINYENRQCGLSACKALMLEGGVIKSDMLRHPQPPLHPKVREGLLRVARRLDPLVLSWGR
notes: N-terminal His6 tag (kept), pET vector, E. coli BL21(DE3), HisTrap purified
For the molecule B1, in series [1], the Km amounted to 4410 ± 90 µM, the kcat came to 11.38 ± 0.06 s⁻¹ and the kcat/Km was 2580 ± 140 M⁻¹ s⁻¹. In the series “purified protein [2]”, the Km is 180 ± 0 µM, the kcat was 29.6 ± 0.2 s⁻¹ and the specificity constant (kcat/Km) stood at 163900 ± 200 M⁻¹ s⁻¹.

B2: VpL-KdpD (Variovorax paradoxus EPS) (protein)
chain: MPKPMNHNLSNPRYRGIFPVVPTTFTEQGALDLESQKRCVDFMIDAGSDGLCILANFSEQFVLSDEEREVLTRTMLEHVKGRVPVIVTTTHYSTKVCAERSRRAQDMGAAMLMVMPPYHGATFRVPEPQIFEFYAGLSDAVSIPIMIQDAPASGTVLSAPFLARMAKEIEHVAYFKIETANAAAKLRELIRLGGDAIEGPWDGEEAITLMPDLDAGATGSMTGGGYPDGIRPIIEAHRAGDRDKAFALYQQWLPLINYENRQAGLLACKSLMKEGGVIACEAPRHPLPAMHPATRAGLIETAKRLDPLVLRWGK
notes: as for B1
For B2, in the series “purified protein [3]”, the Km is 150 ± 10 µM, the kcat turned out to be 21.8 ± 0.2 s⁻¹ and the kcat/Km came to 146000 ± 200 M⁻¹ s⁻¹.

One may read the Km as the substrate concentration at which the rate is half of its maximum. As usually defined, the kcat is the maximal rate divided by the concentration of active sites. In general, kcat/Km refers to the second-order rate constant that governs catalysis at low substrate concentration.
